Read-outs that look alike come from different tables or passages of the source.
Legend:
Assay in all cases: cell-based or functional assay
[1] = biological target: HA of B/Sichuan/379/99 (yamagata) (influenza B virus)
[2] = biological target: HA of ca B/Beijing/243/97 (victoria) (influenza B virus)
[3] = biological target: HA of ca B/Johannesburg/5/99 (yamagata) (influenza B virus)
[4] = biological target: HA of B/Yamagata/16/88 (yamagata) (influenza B virus)
[5] = biological target: HA of B/Shanghai/361/02 (yamagata) (influenza B virus)
[6] = biological target: HA of B/Malaysia/2506/2004 (victoria) (influenza B virus)
[7] = biological target: HA of ca B/Ann Arbor/1/66 (influenza B virus)
[8] = biological target: HA of ca B/Victoria/504/2000 (yamagata) (influenza B virus)
[9] = biological target: HA of B/Ohio/1/2005 (victoria) (influenza B virus)
[10] = biological target: HA of B/Hong Kong/5/72 (influenza B virus)
[11] = biological target: HA of B/Yamanashi/166/98 (yamagata) (influenza B virus)
[12] = biological target: HA of B/Florida/4/2006 (yamagata) (influenza B virus)
[13] = biological target: T1, HA of B/Lee/40 (influenza B virus, UniProt P03460 16-584)
T1 sequence (P03460 16-584 limits assumed): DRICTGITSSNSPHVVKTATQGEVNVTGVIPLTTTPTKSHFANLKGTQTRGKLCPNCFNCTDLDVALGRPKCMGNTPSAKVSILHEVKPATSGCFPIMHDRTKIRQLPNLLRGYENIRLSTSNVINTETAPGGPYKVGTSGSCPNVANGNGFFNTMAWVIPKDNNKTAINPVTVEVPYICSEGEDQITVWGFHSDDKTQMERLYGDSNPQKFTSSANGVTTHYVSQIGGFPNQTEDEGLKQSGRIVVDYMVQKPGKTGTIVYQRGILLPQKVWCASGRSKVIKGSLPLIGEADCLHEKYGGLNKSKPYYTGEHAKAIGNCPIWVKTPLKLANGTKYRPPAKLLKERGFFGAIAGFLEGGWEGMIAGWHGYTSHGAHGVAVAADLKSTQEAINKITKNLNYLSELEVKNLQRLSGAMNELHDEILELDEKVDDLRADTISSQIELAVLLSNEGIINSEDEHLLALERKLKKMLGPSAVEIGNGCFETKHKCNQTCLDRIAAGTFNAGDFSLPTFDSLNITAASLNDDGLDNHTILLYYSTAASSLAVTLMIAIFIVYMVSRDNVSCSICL

[14] = biological target: HA of ca B/Ann Arbor/2/94 (yamagata) (influenza B virus)
[15] = biological target: HA of ca B/Georgia/02/98 (yamagata) (influenza B virus)
[16] = biological target: HA of ca B/Brisbane/60/2008 (victoria) (influenza B virus)
[17] = biological target: HA of B/Hong Kong/330/2001 (victoria) (influenza B virus)
[18] = biological target: HA of B/Sichuan/379/99 (yamagata) (influenza B virus); remark: listed apart in the source
[19] = biological target: HA of ca A/Panama/2007/99 (H3N2) (influenza A virus)
[20] = biological target: HA of ca B/Beijing/243/97 (victoria) (influenza B virus); remark: listed apart in the source
[21] = biological target: HA of B/Malaysia/2506/2004 (victoria) (influenza B virus); remark: listed apart in the source
[22] = biological target: HA of A/Wilson Smith N/33 (H1N1) (influenza A virus, UniProt P03454 18-565)
HA of A/Wilson Smith N/33 (H1N1), sequence (P03454 18-565 limits assumed): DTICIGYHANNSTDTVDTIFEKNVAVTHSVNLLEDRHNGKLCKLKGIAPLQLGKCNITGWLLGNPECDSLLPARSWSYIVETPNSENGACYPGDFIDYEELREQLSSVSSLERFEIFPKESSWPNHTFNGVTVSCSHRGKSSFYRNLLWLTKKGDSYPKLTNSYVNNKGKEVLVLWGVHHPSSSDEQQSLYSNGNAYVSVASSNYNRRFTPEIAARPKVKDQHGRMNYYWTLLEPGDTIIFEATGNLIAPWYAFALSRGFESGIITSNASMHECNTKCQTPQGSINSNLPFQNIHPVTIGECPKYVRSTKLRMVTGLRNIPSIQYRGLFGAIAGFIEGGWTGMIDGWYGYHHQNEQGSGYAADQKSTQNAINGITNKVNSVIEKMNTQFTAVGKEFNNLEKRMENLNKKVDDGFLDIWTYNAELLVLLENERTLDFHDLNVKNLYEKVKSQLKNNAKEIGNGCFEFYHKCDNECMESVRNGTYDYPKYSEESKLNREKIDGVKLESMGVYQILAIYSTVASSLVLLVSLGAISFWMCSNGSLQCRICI

[23] = biological target: HA of A/Victoria/3/75 (H3N2) (influenza A virus)
[24] = biological target: HA of A/Shan dong/9/93 (H3N2) (influenza A virus)
[25] = biological target: HA of A/California/07/2009 (H1N1) (influenza A virus)
[26] = biological target: HA of B/Ohio/1/2005 (victoria) (influenza B virus); remark: listed apart in the source
[27] = biological target: HA of A/Hong Kong/8/68 (H3N2) (influenza A virus)
[28] = biological target: HA of A/Beijing/262/95 (H1N1) (influenza A virus)
[29] = biological target: HA of B/Florida/4/2006 (yamagata) (influenza B virus); remark: listed apart in the source
[30] = biological target: HA of B/Hong Kong/330/2001 (victoria) (influenza B virus); remark: listed apart in the source
[31] = biological target: HA of B/Sichuan/379/99 (yamagata) (influenza B virus); remark: listed apart in the source
[32] = biological target: HA of B/Wisconsin/1/2010 (yamagata) (influenza B virus)
[33] = biological target: HA of ca B/Beijing/243/97 (victoria) (influenza B virus); remark: listed apart in the source
[34] = biological target: HA of B/Yamagata/16/88 (yamagata) (influenza B virus); remark: listed apart in the source
[35] = biological target: HA of B/Arizona/8/2013 (yamagata) (influenza B virus)
[36] = biological target: HA of B/Malaysia/2506/2004 (victoria) (influenza B virus); remark: listed apart in the source
[37] = biological target: HA of ca B/Ann Arbor/1/66 (influenza B virus); remark: listed apart in the source
[38] = biological target: HA of B/Nevada/3/2011 (victoria) (influenza B virus)
[39] = biological target: HA of B/Wisconsin/5/2013 (victoria) (influenza B virus)
[40] = biological target: HA of B/New Jersey/01/2012 (victoria) (influenza B virus)
[41] = biological target: HA of ca B/Victoria/504/2000 (yamagata) (influenza B virus); remark: listed apart in the source
[42] = biological target: HA of B/Phuket/3073/2013 (yamagata) (influenza B virus)
[43] = biological target: HA of B/Ohio/1/2005 (victoria) (influenza B virus); remark: listed apart in the source
[44] = biological target: HA of B/Hong Kong/5/72 (influenza B virus); remark: listed apart in the source
[45] = biological target: HA of B/Florida/4/2006 (yamagata) (influenza B virus); remark: listed apart in the source
[46] = biological target: HA of B/Texas/2/2013 (victoria) (influenza B virus)
[47] = biological target: T1, HA of B/Lee/40; remark: listed apart in the source
[48] = biological target: HA of ca B/Georgia/02/98 (yamagata) (influenza B virus); remark: listed apart in the source
[49] = biological target: HA of ca B/Brisbane/60/2008 (victoria) (influenza B virus); remark: listed apart in the source
[50] = biological target: HA of B/Hong Kong/330/2001 (victoria) (influenza B virus); remark: listed apart in the source
[51] = biological target: HA of B/Sichuan/379/99 (yamagata) (influenza B virus); remark: listed apart in the source
[52] = biological target: HA of B/Malaysia/2506/2004 (victoria) (influenza B virus); remark: listed apart in the source
[53] = biological target: HA of B/Yamanashi/166/98 (yamagata) (influenza B virus); remark: listed apart in the source
[54] = biological target: HA of A/Solomon Island/3/2006 (H1N1) (influenza A virus)

B1: FBC39 IgG (antibody, V domains shown)
VH: EVQLVVSGGGLVKPGGSLRLSCAASGLSFLNAWMSWVRQAPGKGLEWVGRIKSNTDGGTTDYAAPVKGRFSISRDDSKNMLFLHMSSLRTEDTAVYYCATDGPYSDDFRSGYAARYRYFGMDVWGQGTTVTVSS
VL: DIQMTQSPSSVSASVGDRVTITCRASQDISTWLAWYQQKPGKAPKLLIYAASSLQSGVPSRFSGSGSGTDFTLTISSLQPEDFATYFCQQANSFPPTFGQGTKLEIK
[1]
  Hemagglutination Inhibition Titer: 10 nM
[2]
  Hemagglutination Inhibition Titer: 14 nM
[3]
  Hemagglutination Inhibition Titer: 18 nM
[4]
  Hemagglutination Inhibition Titer: 11 nM
[5]
  Hemagglutination Inhibition Titer: 16 nM
[6]
  Hemagglutination Inhibition Titer: 20 nM
[7]
  Hemagglutination Inhibition Titer: 6 nM
[8]
  Hemagglutination Inhibition Titer: 16 nM
[9]
  Hemagglutination Inhibition Titer: 24 nM
[10]
  Hemagglutination Inhibition Titer: 8 nM
[11]
  Hemagglutination Inhibition Titer: 13 nM
[12]
  Hemagglutination Inhibition Titer: 7 nM
[13]
  Hemagglutination Inhibition Titer: 5 nM
[14]
  Hemagglutination Inhibition Titer: 6 nM
[15]
  Hemagglutination Inhibition Titer: 16 nM
[16]
  Hemagglutination Inhibition Titer: 20 nM
[17]
  Hemagglutination Inhibition Titer: 16 nM
[18]
  Neutralization (IC50): 0.2 nM
[19]
  Neutralization (IC50): > 1000 nM
[20]
  Neutralization (IC50): 0.4 nM
[21]
  Neutralization (IC50): 1 nM
[22]
  Neutralization (IC50): > 1000 nM
[23]
  Neutralization (IC50): > 1000 nM
[24]
  Neutralization (IC50): > 1000 nM
[25]
  Neutralization (IC50): > 1000 nM
[26]
  Neutralization (IC50): 0.6 nM
[27]
  Neutralization (IC50): > 1000 nM
[28]
  Neutralization (IC50): > 1000 nM
[29]
  Neutralization (IC50): 0.4 nM
[30]
  Neutralization (IC50): 1 nM
[31]
  Neutralization (IC50): 0.3 nM
[32]
  Neutralization (IC50): 0.1 nM
[33]
  Neutralization (IC50): 0.9 nM
[34]
  Neutralization (IC50): 0.1 nM
[35]
  Neutralization (IC50): 0.1 nM
[36]
  Neutralization (IC50): 1.2 nM
[37]
  Neutralization (IC50): 0.6 nM
[38]
  Neutralization (IC50): 1.2 nM
[39]
  Neutralization (IC50): 0.5 nM
[40]
  Neutralization (IC50): 0.7 nM
[41]
  Neutralization (IC50): 0.2 nM
[42]
  Neutralization (IC50): 0.2 nM
[43]
  Neutralization (IC50): 0.5 nM
[44]
  Neutralization (IC50): 0.4 nM
[45]
  Neutralization (IC50): 0.2 nM
[46]
  Neutralization (IC50): 0.4 nM
[47]
  Neutralization (IC50): 0.1 nM
[48]
  Neutralization (IC50): 0.1 nM
[49]
  Neutralization (IC50): 1.5 nM
[50]
  Neutralization (IC50): 1.8 nM
[51]
  ADCC: NK cell killing of infected A549 cells (LDH release), IC50: 0.85 nM
[52]
  ADCC: NK cell killing of infected A549 cells (LDH release), IC50: 1.45 nM

B2: FY1/39 BiS3 100/44 (bispecific antibody)
light: DIQMTQSPSSLSASVGDRVTITCRTSQSLSSYLHWYQQKPGKAPKLLIYAASSLQSGVPSRFSGSGSGTDFTLTISSLQPEDFATYYCQQSRTFGQGTKVEIKRTVAAPSVFIFPPSDEQLKSGTASVVCLLNNFYPREAKVQWKVDNALQSGNSQESVTEQDSKDSTYSLSSTLTLSKADYEKHKVYACEVTHQGLSSPVTKSFNRGEC
heavy: not shown
[18]
  Neutralization (IC50): 12.3 nM
[19]
  Neutralization (IC50): 149 nM
[20]
  Neutralization (IC50): 21.5 nM
[21]
  Neutralization (IC50): 43.7 nM
[22]
  Neutralization (IC50): 10.6 nM
[23]
  Neutralization (IC50): 45.2 nM
[24]
  Neutralization (IC50): 7.8 nM
[25]
  Neutralization (IC50): 9.9 nM
[26]
  Neutralization (IC50): 8.1 nM
[27]
  Neutralization (IC50): 5.8 nM
[53]
  Neutralization (IC50): 0.7 nM
[28]
  Neutralization (IC50): 20.2 nM
[29]
  Neutralization (IC50): 5.9 nM
[54]
  Neutralization (IC50): 2.5 nM
[30]
  Neutralization (IC50): 112 nM

— patent publication US20180155413A1 (AstraZeneca / MedImmune, published 2018)
